Assay [1] addresses glycomyoglobin containing β-GlcNAc-serine at position 4 (Gly4TAG mutant myoglobin, C-terminal His6 tag) (UniProt P02185). Description: ELISA-like assay, 200 ng immobilized myoglobin, biotinylated BSII, streptavidin-alkaline phosphatase, absorbance at 405 nm; reference: wild-type myoglobin. Background: An ELISA detects its analyte on a solid surface through an enzyme-linked reagent.

In assay [2] the target is glycomyoglobin containing GalNAc-α-threonine at position 4 (myoglobin 4TAG mutant, C-terminal 6x His tag) (UniProt P02185). Kind of assay: enzyme-linked lectin-binding assay (ELLA), immobilized myoglobin samples, biotinylated lectin, streptavidin-alkaline phosphatase, pNPP at 405 nm; reference: equivalent concentrations of tyrosine-myoglobin.
glycomyoglobin containing GalNAc-α-threonine at position 4 (myoglobin 4TAG mutant, C-terminal 6x His tag), sequence (P02185 other isoform, or with tags, fused parts or gaps mutant): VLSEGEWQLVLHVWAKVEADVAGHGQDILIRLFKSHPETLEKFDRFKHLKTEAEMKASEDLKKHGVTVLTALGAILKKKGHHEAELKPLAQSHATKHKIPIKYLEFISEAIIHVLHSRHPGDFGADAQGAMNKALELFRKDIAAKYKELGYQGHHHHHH

Vicia Villosa lectin (VVL), biotinylated conjugate, sequence (P56625 whole entry): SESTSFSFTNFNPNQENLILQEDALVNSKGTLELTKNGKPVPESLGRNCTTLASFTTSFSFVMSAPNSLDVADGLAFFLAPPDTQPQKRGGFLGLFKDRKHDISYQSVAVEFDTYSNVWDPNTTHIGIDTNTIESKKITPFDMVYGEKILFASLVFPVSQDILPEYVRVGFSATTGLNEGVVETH
glycomyoglobin containing β-GlcNAc-serine at position 4 (Gly4TAG mutant myoglobin, C-terminal His6 tag), sequence (P02185 other isoform, or with tags, fused parts or gaps mutant): as the sequence (P02185 other isoform, or with tags, fused parts or gaps mutant) above

Substance “Bandeiraea simplicifolia II (BSII) lectin, biotinylated” had a fold signal versus wild-type myoglobin in assay [1] greater than 200 fold. As to “Dolichos Biflorus lectin (DBL), biotinylated conjugate (from UniProt P05045 23-275)”, the fold signal increase versus tyrosine-myoglobin in assay [2] is 5 fold. As for “Vicia Villosa lectin (VVL), biotinylated conjugate (from UniProt P56625 1-185)”, the fold signal increase versus tyrosine-myoglobin in assay [2] is 10 fold.

The values are drawn from patent US20080064059A1.
